Literature values as cited in patent US6204360A, “Retro-inverso thymosin alpha 1 hybrids” (USA Universe Bioengineering, Inc., priority 1999, dated 2001).
No end group written: not given here.

Details: Rost, Int. J. Clin. Pharmacol. Ther. 37:51, 1999

thymosin alpha 1 (SDAAVDTSSEITTKDLKEKKEVVEEAEN; ends and bridges not checked; UniProt P06454 2-29, looked up) [TM-alpha1, 28 amino acid acidic peptide purified from thymosin fraction V; immunomodulator]
half-life in vivo: short half-life in vivo
